Source: publication PMC8592984 (2021)
Where two headings read alike, the source gives them in different places.

Assays:
Experiment in all cases: SPR
[1] = target: Tau 441 P301S (human, UniProt P10636-8 1-441, P301S)
[2] = target: T1, human Tau 441 full-length protein (4R tau), SPR construct (human, UniProt P10636-8 1-441)
[3] = target: Tau 410 P179A (human, UniProt P10636-5 1-410, P179A)
[4] = target: Tau 410 P179A/P216A (human, UniProt P10636-5 1-410, P179A | P216A)
[5] = target: T1, human Tau 441 full-length protein (4R …); remark: listed apart in the source
[6] = target: human Tau 410 full-length protein (3R tau), SPR construct (human, UniProt P10636-5 1-410)
human Tau 410 full-length protein (3R tau), SPR construct, sequence (P10636 other isoform, or with tags, fused parts or gaps): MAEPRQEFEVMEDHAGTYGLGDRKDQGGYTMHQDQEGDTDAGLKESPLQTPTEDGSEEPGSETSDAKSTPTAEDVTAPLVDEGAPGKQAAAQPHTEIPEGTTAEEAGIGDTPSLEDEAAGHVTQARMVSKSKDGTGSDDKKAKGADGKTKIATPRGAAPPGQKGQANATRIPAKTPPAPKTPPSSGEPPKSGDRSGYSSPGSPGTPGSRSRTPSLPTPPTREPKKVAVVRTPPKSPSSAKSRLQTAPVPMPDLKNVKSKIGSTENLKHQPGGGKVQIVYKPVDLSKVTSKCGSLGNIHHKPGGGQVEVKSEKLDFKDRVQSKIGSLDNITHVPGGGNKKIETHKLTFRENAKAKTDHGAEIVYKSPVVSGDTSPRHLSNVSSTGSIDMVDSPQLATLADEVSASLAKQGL

[7] = target: Tau 410 P216A (human, UniProt P10636-5 1-410, P216A)
Tau 410 P216A, sequence (P10636 other isoform, or with tags, fused parts or gaps P216A | P216A): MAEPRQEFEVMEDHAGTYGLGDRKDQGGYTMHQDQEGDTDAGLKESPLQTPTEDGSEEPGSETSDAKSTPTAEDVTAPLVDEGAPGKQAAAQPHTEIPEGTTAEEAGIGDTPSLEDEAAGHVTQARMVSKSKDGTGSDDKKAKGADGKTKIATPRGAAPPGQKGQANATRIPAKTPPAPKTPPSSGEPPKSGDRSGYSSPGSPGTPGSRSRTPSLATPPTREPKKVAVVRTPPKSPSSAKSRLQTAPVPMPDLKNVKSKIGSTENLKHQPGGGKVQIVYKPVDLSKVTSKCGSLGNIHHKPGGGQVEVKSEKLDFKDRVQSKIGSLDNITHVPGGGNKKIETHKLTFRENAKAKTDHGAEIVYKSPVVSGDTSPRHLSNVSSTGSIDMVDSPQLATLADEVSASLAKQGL

T1 sequence (P10636 other isoform, or with tags, fused parts or gaps): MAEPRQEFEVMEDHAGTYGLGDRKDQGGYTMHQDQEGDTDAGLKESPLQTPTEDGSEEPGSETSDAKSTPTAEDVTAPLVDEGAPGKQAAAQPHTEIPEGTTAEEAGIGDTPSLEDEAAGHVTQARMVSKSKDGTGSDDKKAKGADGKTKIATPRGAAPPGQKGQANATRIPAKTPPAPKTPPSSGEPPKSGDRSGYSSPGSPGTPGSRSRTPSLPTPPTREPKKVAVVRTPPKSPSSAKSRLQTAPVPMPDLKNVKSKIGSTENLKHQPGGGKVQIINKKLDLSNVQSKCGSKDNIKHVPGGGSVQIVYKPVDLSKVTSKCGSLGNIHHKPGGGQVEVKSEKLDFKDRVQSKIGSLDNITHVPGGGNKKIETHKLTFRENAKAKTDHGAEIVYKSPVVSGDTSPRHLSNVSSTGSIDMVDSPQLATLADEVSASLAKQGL
Tau 441 P301S, sequence (P10636 other isoform, or with tags, fused parts or gaps P301S | P301S): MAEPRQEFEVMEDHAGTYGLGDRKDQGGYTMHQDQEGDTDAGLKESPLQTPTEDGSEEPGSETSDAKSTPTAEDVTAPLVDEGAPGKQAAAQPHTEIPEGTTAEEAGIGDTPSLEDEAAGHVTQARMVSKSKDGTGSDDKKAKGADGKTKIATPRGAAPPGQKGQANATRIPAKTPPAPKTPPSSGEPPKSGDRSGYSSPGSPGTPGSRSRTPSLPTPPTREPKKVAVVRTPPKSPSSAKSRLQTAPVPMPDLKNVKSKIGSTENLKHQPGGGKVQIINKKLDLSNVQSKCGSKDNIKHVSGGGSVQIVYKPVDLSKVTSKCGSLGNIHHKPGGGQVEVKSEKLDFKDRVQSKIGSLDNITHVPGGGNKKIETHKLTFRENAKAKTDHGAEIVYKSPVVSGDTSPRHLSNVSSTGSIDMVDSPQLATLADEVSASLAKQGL
Tau 410 P179A/P216A, sequence (P10636 other isoform, or with tags, fused parts or gaps P179A | P216A | P179A P216A): as the sequence (P10636 other isoform, or with tags, fused parts or gaps P216A | P216A) above, with P179A counted along it
Tau 410 P179A, sequence (P10636 other isoform, or with tags, fused parts or gaps P179A | P179A): as the sequence (P10636 other isoform, or with tags, fused parts or gaps P216A | P216A) above, with P179A, A216P counted along it

Binder | Kd [1] | Kd [2] | Kd [3] | Kd [4] | Kd [5] | Kd [6] | Kd [7]
human PQBP1(1–94) including WWD (domain or fragment) MPLPVALQTRLAKRGILKHLEPEPEEEIIAEDYDDDPVDYEATRLEGLPPSWYKVFDPSCGLPYYWNADTDLVSWLSPHDPNSVVTKSAKKLRS | 46.2 nM | 54.7 nM | 6340 nM | 73300 nM | 11 nM | 76.9 nM | 445 nM
human PQBP1 full-length form (PQBP1-FL) (natural protein) MPLPVALQTRLAKRGILKHLEPEPEEEIIAEDYDDDPVDYEATRLEGLPPSWYKVFDPSCGLPYYWNADTDLVSWLSPHDPNSVVTKSAKKLRSSNADAEEKLDRSHDKSDRGHDKSDRSHEKLDRGHDKSDRGHDKSDRDRERGYDKVDRERERDRERDRDRGYDKADREEGKERRHHRREELAPYPKSKKAVSRKDEELDPMDPSSYSDAPRGTWSTGLPKRNEAKTGADTTAAGPLFQQRPYPSPGAVLRANAEASRTKQQD | 51.5 nM | 42.1 nM | 4820 nM | 26000 nM | 12.2 nM | 43.3 nM | 314 nM
